B1: Emerin (Homo sapiens), P50402 (parent)
chain: MDNYADLSDTELTTLLRRYNIPHGPVVGSTRRLYEKKIFEYETQRRRLSPPSSSAASSYSFSDLNSTRGDADMYDLPKKEDALLYQSKGYNDDYYEESYFTTRTYGEPESAGPSRAVRQSVTSFPDADAFHHQVHDDDLLSSSEEECKDRERPMYGRDSAYQSITHYRPVSASRSSLDLSYYPTSSSTSFMSSSSSSSSWLTRRAIRPENRAPGAGLGQDRQVPLWGQLLLFLVFVIVLFFIYHFMQAEEGNPF
partner: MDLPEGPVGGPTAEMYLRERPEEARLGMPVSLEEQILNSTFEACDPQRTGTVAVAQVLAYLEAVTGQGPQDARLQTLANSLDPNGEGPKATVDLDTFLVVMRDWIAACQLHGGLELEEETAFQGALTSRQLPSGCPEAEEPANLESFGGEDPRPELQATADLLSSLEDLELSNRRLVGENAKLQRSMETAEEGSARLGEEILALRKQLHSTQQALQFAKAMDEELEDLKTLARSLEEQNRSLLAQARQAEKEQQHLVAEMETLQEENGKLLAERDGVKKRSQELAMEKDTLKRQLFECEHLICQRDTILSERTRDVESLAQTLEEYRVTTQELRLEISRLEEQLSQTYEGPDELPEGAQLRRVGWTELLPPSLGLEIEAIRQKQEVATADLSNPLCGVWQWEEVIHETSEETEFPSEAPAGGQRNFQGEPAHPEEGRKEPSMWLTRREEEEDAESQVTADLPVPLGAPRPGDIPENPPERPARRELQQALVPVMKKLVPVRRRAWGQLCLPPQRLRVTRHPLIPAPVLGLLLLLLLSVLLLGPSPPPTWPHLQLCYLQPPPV
B2: Nuclear receptor subfamily 0 group B member 1 (Homo sapiens), P51843 (parent)
chain: MAGENHQWQGSILYNMLMSAKQTRAAPEAPETRLVDQCWGCSCGDEPGVGREGLLGGRNVALLYRCCFCGKDHPRQGSILYSMLTSAKQTYAAPKAPEATLGPCWGCSCGSDPGVGRAGLPGGRPVALLYRCCFCGEDHPRQGSILYSLLTSSKQTHVAPAAPEARPGGAWWDRSYFAQRPGGKEALPGGRATALLYRCCFCGEDHPQQGSTLYCVPTSTNQAQAAPEERPRAPWWDTSSGALRPVALKSPQVVCEAASAGLLKTLRFVKYLPCFQVLPLDQQLVLVRNCWASLLMLELAQDRLQFETVEVSEPSMLQKILTTRRRETGGNEPLPVPTLQHHLAPPAEARKVPSASQVQAIKCFLSKCWSLNISTKEYAYLKGTVLFNPDVPGLQCVKYIQGLQWGTQQILSEHTRMTHQGPHDRFIELNSTLFLLRFINANVIAELFFRPIIGTVSMDDMMLEMLCTKI
B3: Acetylcholine receptor subunit gamma (Homo sapiens), P07510-2 (parent)
chain: MHGGQGPLLLLLLLAVCLGAQGRNQEERLLADLMQNYDPNLRPAERDSDVVNVSLKLTLTNLISLNEREEALTTNVWIEMQWCDYRLRWDPRDYEGLWVLRVPSTMVWRPDIVLENKSQTYSTNEIDLQLSQEDGQTIEWIFIDPEAFTENGEWAIQHRPAKMLLDPAAPAQEAGHQKVVFYLLIQRKPLFYVINIIAPCVLISSVAILIHFLPAKAGGQKCTVAINVLLAQTVFLFLVAKKVPETSQAVPLISKYLTFLLVVTILIVVNAVVVLNVSLRSPHTHSMARGVRKVFLRLLPQLLRMHVRPLAPAAVQDTQSRLQNGSSGWSITTGEEVALCLPRSELLFQQWQRQGLVAAALEKLEKGPELGLSQFCGSLKQAAPAIQACVEACNLIACARHQQSHFDNGNEEWFLVGRVLDRVCFLAMLSLFICGTAGIFLMAHYNRVPALPFPGDPRPYLPSPD
partner: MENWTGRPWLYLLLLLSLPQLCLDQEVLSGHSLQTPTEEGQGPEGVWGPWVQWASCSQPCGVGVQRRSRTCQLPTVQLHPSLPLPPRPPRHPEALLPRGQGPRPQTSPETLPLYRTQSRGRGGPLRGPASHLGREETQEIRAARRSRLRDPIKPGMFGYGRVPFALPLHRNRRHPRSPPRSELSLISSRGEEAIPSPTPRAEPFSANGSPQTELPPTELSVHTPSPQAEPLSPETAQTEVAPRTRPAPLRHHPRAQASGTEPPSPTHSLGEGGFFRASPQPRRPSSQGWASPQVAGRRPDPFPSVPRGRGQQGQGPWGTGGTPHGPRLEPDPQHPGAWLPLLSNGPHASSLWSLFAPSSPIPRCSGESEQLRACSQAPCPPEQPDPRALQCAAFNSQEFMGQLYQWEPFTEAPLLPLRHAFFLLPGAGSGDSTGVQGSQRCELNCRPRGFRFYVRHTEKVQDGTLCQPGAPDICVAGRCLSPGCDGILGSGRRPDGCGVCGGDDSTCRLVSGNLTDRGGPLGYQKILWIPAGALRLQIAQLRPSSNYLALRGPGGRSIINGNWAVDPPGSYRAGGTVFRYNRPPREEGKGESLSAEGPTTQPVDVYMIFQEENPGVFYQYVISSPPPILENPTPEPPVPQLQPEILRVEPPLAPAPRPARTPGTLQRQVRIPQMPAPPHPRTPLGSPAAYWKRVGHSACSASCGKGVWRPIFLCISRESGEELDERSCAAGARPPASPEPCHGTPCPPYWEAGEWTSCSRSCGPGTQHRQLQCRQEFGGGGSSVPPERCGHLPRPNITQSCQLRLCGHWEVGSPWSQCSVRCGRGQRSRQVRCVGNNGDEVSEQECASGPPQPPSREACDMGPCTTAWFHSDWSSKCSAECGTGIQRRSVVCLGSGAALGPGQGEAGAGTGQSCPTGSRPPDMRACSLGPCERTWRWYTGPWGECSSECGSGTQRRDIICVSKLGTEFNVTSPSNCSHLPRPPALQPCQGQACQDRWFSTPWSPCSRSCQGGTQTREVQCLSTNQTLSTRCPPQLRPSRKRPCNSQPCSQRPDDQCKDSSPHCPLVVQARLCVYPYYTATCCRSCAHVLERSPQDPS
B4: Beta-crystallin A4 (Homo sapiens), P53673 (parent)
chain: MTLQCTKSAGPWKMVVWDEDGFQGRRHEFTAECPSVLELGFETVRSLKVLSGAWVGFEHAGFQGQQYILERGEYPSWDAWGGNTAYPAERLTSFRPAACANHRDSRLTIFEQENFLGKKGELSDDYPSLQAMGWEGNEVGSFHVHSGAWVCSQFPGYRGFQYVLECDHHSGDYKHFREWGSHAPTFQVQSIRRIQQ
partner: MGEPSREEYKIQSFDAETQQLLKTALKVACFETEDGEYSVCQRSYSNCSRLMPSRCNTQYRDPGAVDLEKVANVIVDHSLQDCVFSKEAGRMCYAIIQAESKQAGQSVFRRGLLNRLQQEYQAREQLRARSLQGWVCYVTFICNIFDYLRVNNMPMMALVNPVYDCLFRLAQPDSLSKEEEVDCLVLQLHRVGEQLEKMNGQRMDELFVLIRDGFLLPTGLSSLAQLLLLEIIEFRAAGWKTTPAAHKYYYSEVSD
B5: U4/U6 small nuclear ribonucleoprotein Prp31 (Homo sapiens), Q8WWY3 (parent)
chain: MSLADELLADLEEAAEEEEGGSYGEEEEEPAIEDVQEETQLDLSGDSVKTIAKLWDSKMFAEIMMKIEEYISKQAKASEVMGPVEAAPEYRVIVDANNLTVEIENELNIIHKFIRDKYSKRFPELESLVPNALDYIRTVKELGNSLDKCKNNENLQQILTNATIMVVSVTASTTQGQQLSEEELERLEEACDMALELNASKHRIYEYVESRMSFIAPNLSIIIGASTAAKIMGVAGGLTNLSKMPACNIMLLGAQRKTLSGFSSTSVLPHTGYIYHSDIVQSLPPDLRRKAARLVAAKCTLAARVDSFHESTEGKVGYELKDEIERKFDKWQEPPPVKQVKPLPAPLDGQRKKRGGRRYRKMKERLGLTEIRKQANRMSFGEIEEDAYQEDLGFSLGHLGKSGSGRVRQTQVNEATKARISKTLQRTLQKQSVVYGGKSTIRDRSSGTASSVAFTPLQGLEIVNPQAAEKKVAEANQKYFSSMAEFLKVKGEKSGLMST
partner: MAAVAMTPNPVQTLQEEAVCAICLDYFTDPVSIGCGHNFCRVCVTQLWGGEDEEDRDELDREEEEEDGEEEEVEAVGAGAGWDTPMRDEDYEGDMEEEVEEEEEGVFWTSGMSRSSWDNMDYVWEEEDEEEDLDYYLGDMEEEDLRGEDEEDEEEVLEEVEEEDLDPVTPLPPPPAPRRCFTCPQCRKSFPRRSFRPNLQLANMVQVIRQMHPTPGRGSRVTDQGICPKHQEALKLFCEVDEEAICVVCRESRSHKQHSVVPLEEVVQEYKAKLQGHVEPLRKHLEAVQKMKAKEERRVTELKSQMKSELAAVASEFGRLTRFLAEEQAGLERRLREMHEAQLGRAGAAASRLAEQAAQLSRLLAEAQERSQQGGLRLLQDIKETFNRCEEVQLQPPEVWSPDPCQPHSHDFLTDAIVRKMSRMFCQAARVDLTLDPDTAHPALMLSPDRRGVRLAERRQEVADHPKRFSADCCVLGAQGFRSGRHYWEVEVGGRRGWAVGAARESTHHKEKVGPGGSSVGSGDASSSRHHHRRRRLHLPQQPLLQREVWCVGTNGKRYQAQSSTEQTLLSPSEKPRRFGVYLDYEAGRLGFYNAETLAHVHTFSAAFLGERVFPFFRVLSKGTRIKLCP
B6: Regulator of G-protein signaling 2 (Homo sapiens), P41220 (parent)
chain: MQSAMFLAVQHDCRPMDKSAGSGHKSEEKREKMKRTLLKDWKTRLSYFLQNSSTPGKPKTGKKSKQQAFIKPSPEEAQLWSEAFDELLASKYGLAAFRAFLKSEFCEENIEFWLACEDFKKTKSPQKLSSKARKIYTDFIEKEAPKEINIDFQTKTLIAQNIQEATSGCFTTAQKRVYSLMENNSYPRFLESEFYQDLCKKPQITTEPHAT
B7: Adiponectin (Homo sapiens), Q15848 (parent)
chain: MLLLGAVLLLLALPGHDQETTTQGPGVLLPLPKGACTGWMAGIPGHPGHNGAPGRDGRDGTPGEKGEKGDPGLIGPKGDIGETGVPGAEGPRGFPGIQGRKGEPGEGAYVYRSAFSVGLETYVTIPNMPIRFTKIFYNQQNHYDGSTGKFHCNIPGLYYFAYHITVYMKDVKVSLFKKDKAMLFTYDQYQENNVDQASGSVLLHLEVGDQVWLQVYGEGERNGLYADNDNDSTFTGFLLYHDTN
partner: B1 partner
B8: Sulfotransferase 2B1 (Homo sapiens), O00204 (parent)
chain: MDGPAEPQIPGLWDTYEDDISEISQKLPGEYFRYKGVPFPVGLYSLESISLAENTQDVRDDDIFIITYPKSGTTWMIEIICLILKEGDPSWIRSVPIWERAPWCETIVGAFSLPDQYSPRLMSSHLPIQIFTKAFFSSKAKVIYMGRNPRDVVVSLYHYSKIAGQLKDPGTPDQFLRDFLKGEVQFGSWFDHIKGWLRMKGKDNFLFITYEELQQDLQGSVERICGFLGRPLGKEALGSVVAHSTFSAMKANTMSNYTLLPPSLLDHRRGAFLRKGVCGDWKNHFTVAQSEAFDRAYRKQMRGMPTFPWDEDPEEDGSPDPEPSPEPEPKPSLEPNTSLEREPRPNSSPSPSPGQASETPHPRPS
partner: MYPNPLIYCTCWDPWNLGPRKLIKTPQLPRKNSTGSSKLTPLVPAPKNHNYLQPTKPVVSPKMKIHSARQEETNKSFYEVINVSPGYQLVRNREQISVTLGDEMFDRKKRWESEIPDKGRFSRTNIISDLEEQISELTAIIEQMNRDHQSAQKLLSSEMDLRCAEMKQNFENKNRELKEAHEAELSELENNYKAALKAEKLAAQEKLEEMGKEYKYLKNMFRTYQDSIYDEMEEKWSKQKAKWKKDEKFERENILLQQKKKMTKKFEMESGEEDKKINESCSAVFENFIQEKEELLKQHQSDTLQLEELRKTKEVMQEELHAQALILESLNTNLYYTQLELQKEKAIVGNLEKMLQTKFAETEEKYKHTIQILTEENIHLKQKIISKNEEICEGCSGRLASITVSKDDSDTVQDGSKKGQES

Variants of: B1
Conditions: with kash5_human KASH5, Q8N6L0

| Variant | effect of a mutation on the interaction |
| --- | --- |
| S54F | with no effect |
| P183H | with no effect |
| P183T | with no effect |

Variants of: B2
Conditions: with stf1_human NR5A1, Q13285
Chain of stf1_human NR5A1, Q13285 (Q13285 whole entry): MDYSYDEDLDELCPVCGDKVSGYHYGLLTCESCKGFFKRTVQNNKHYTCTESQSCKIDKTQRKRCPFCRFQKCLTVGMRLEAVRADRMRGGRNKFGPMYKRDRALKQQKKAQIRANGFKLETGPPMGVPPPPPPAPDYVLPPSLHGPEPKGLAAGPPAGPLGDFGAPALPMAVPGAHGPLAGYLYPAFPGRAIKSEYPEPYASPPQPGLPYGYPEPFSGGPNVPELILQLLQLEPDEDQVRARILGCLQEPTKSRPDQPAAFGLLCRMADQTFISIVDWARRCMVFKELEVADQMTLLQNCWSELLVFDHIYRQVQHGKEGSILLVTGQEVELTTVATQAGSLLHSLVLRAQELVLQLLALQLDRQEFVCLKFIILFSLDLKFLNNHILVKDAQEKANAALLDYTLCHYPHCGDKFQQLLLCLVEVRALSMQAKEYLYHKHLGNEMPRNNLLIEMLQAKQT

| Variant | effect of a mutation on the interaction |
| --- | --- |
| W105C | with no effect |

Variants of: B3
Conditions: with ADAMTSL4, Q6UY14-3

| Variant | effect of a mutation on the interaction |
| --- | --- |
| R86C | disrupting interaction strength |
| R187C | disrupting interaction strength |
| V107G | disrupting interaction strength |

Variants of: B4
Conditions: with MIF4GD

| Variant | effect of a mutation on the interaction |
| --- | --- |
| F94S | disrupting interaction strength |
| V36M | disrupting interaction strength |
| L69P | disrupting interaction strength |

Variants of: B5
Conditions: with tri41_human TRIM41, Q8WV44

| Variant | effect of a mutation on the interaction |
| --- | --- |
| L107V | with no effect |

Variants of: B6
Conditions: with MTUS2, Q5JR59-3
Chain of MTUS2, Q5JR59-3 (Q5JR59 other isoform, or with tags, fused parts or gaps): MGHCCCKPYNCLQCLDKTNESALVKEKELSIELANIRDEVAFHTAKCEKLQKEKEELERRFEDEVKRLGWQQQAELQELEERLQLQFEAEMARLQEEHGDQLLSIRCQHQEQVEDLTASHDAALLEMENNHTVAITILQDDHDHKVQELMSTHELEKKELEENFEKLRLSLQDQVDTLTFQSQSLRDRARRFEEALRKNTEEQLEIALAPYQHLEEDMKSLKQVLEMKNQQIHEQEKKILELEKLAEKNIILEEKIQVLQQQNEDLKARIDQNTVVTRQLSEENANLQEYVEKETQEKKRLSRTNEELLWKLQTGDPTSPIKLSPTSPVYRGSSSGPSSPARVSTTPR

| Variant | effect of a mutation on the interaction |
| --- | --- |
| R44H | with no effect |
| Q2R | with no effect |
| Q2L | with no effect |

Variants of: B7
Conditions: with kash5_human KASH5, Q8N6L0

| Variant | effect of a mutation on the interaction |
| --- | --- |
| I164T | with no effect |
| Y111H | with no effect |

Variants of: B8
Conditions: with FLACC1, Q96Q35-2

| Variant | effect of a mutation on the interaction |
| --- | --- |
| R230H | with no effect |

From IntAct's records for PubMed 25910212
